Key:
[1] = target: human GLP1 receptor (on HEK293-CNG-HuGLP1R stable cells) (human) (UniProt P43220); assay: cell-based or functional assay
[2] = target: human GLP1 receptor (on HEK293-CNG-HuGLP1R stable cells) (human, UniProt P43220 24-463); assay: cell-based or functional assay

Work on “Eli Lilly Trulicity (Lot#02448599) (Fc fusion)” yielded an EC50, cAMP bioassay on HEK293-CNG-HuGLP1R cells [1] of 22 nM.

B1: p9: hGLP1R ECD (1-116)-3xG4S-RGER-Trulicity (lot U2243DL140-14/P9EA001) (Fc fusion)
chain: RPQGATVSLWETVQKWREYRRQCQRSLTEDPPPATDLFCNRTFDEYACWPDGEPGSFVNVSCPWYLPWASSVPQGHVYRFCTAEGLWLQKDNSSLPWRDLSECEESKGGGGSGGGGSGGGGSRGERHGEGTFTSDVSSYLEEQAAKEFIAWLVKGGGGGGGSGGGGSGGGGSAESKYGPPCPPCPAPEAAGGPSVFLFPPKPKDTLMISRTPEVTCVVVDVSQEDPEVQFNWYVDGVEVHNAKTKPREEQFNSTYRVVSVLTVLHQDWLNGKEYKCKVSNKGLPSSIEKTISKAKGQPREPQVYTLPPSQEMTKNQVSLTCLVKGFYPSDIAVEWESNGQPENNYKTTPPVLDSDGSFFLYSRLTVDKSRWQEGNVFSCSVMHEALHNHYTQKSLSLSLG
For B1, the “EC50, cAMP bioassay on HEK293-CNG-HuGLP1R cells (after Factor Xa predigestion)” value [2] was 17.6 nM.

From patent US20220267402A1 (SERPENTIDE, published 2022)
